For one test, the target named is Fly Caf1 wild-type (fly (Drosophila melanogaster), UniProt Q24572 1-430). The test can be described thus: pull-down.
Test [1] deals with Caf1 H3 binding pocket mutant (E235Q/D252K/E279Q) (fly (Drosophila melanogaster), UniProt Q24572 1-430, E235Q | D252K | E279Q). Description: pull-down.
Sequence of Caf1 H3 binding pocket mutant (E235Q/D252K/E279Q) (Q24572 whole entry E235Q/D252K/E279Q): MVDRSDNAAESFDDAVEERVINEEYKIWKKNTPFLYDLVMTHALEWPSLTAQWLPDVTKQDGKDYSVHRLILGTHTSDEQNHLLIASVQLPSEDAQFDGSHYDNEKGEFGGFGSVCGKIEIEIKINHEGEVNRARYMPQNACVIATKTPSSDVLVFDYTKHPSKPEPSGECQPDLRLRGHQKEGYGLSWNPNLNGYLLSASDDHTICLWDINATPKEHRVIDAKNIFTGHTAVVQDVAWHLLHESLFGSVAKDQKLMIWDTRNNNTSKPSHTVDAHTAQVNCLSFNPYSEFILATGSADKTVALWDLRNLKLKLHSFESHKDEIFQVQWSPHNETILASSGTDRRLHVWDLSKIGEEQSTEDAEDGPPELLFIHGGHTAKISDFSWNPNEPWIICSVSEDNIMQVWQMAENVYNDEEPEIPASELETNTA

Sequence of Fly Caf1 wild-type (Q24572 whole entry): as the sequence (Q24572 whole entry E235Q/D252K/E279Q) above, with Q235E, K252D, Q279E counted along it

With AKLQPLSEKEKKLVRQFNTFLVRNFEKIRRCKAKR (domain or fragment, fly (Drosophila melanogaster), UniProt Q9VW15 1582-1616, looked up) [GST-CBM (Caf1-binding-motif, Ash1 1,582-1,616)], the binding result (with Fly Caf1 wild-type; in test [1]) was “binds” each time.

The record behind these values is doi:10.1101/2023.01.24.525315 (bioRxiv, 2023).
